Positions count from the first letter of the chain named.
B1: IgG1-F1199 (antibody)
heavy: QVQLQESGPGLVKPSETLSLTCAVSGHSISHDHAWSWVRQPPGEGLEWIGFISYSGITNYNPSLQGRVTISRDNSKNTLYLQMNSLRAEDTAVYYCARSLARTTAMDYWGEGTLVTVSSASTKGPSVFPLAPSSKSTSGGTAALGCLVKDYFPEPVTVSWNSGALTSGVHTFPAVLQSSGLYSLSSVVTVPSSSLGTQTYICNVNHKPSNTKVDKKVEPKSCDKTHTCPPCPAPELLGGPSVFLFPPKPKDTLYITREPEVTCVVVDVSHEDPEVKFNWYVDGVEVHNAKTKPREEQYNSTYRVVSVLTVLHQDWLNGKEYKCKVSNKALPAPIEKTISKAKGQPREPQVYTLPPSRDELTKNQVSLTCLVKGFYPSDIAVEWESNGQPENNYKTTPPVLDSDGSFFLYSKLTVDKSRWQQGNVFSCSVMHEALHYHVTRKELSLSP
light: not shown
notes: EU numbering; copies: 2 + 2
B2: IgG1-F1247 (antibody)
heavy: B1 heavy with L237R, S241K, T252V, T256S
light: not shown
notes: EU numbering; copies: 2 + 2
B3: IgG1-F1203 (antibody)
heavy: B1 heavy with T256S, E258Q
light: not shown
notes: EU numbering; copies: 2 + 2
B4: IgG1-F1248 (antibody)
heavy: B1 heavy with L237R, S241K, T252V
light: not shown
notes: EU numbering; copies: 2 + 2
B5: IgG1-F1256 (antibody)
heavy: B1 heavy with L237R, S241K, T256S, E258T, Q313H
light: not shown
notes: EU numbering; copies: 2 + 2
B6: IgG1-F1264 (antibody)
heavy: B1 heavy with L237R, S241K, T256S, E258A
light: not shown
notes: EU numbering; copies: 2 + 2
B7: IgG1-F1268 (antibody)
heavy: B1 heavy with L237R, S241K, T256S, E258T, H435D
light: not shown
notes: EU numbering; copies: 2 + 2
B8: IgG1-F1261 (antibody)
heavy: B1 heavy with L237R, S241K, T256S, E258T, E442D
light: not shown
notes: EU numbering; copies: 2 + 2
B9: IgG1-F1252 (antibody)
heavy: B1 heavy with L237R, S241K, T252V, E258Q
light: not shown
notes: EU numbering; copies: 2 + 2
B10: IgG1-F1200 (antibody)
heavy: B1 heavy with T252V, E258T
light: not shown
notes: EU numbering; copies: 2 + 2
B11: IgG1-F1202 (antibody)
heavy: B1 heavy with T252V
light: not shown
notes: EU numbering; copies: 2 + 2
B12: IgG1-F1265 (antibody)
heavy: B1 heavy with L237R, S241K, T256S, E258G
light: not shown
notes: EU numbering; copies: 2 + 2
B13: IgG1-F1251 (antibody)
heavy: B1 heavy with L237R, S241K, T252V, T256S, E258Q
light: not shown
notes: EU numbering; copies: 2 + 2
B14: IgG1-F1245 (antibody)
heavy: B1 heavy with L237R, S241K
light: not shown
notes: EU numbering; copies: 2 + 2
B15: IgG1-F1208 (antibody)
heavy: B1 heavy with L253A, T256S, E258T, R440Q, E442S
light: not shown
notes: EU numbering; copies: 2 + 2
B16: IgG1-F1217 (antibody)
heavy: B1 heavy with L253T, T256S, E258T, R440Q, E442S
light: not shown
notes: EU numbering; copies: 2 + 2
B17: IgG1-F1266 (antibody)
heavy: B1 heavy with L237R, S241K, T256S, E258N
light: not shown
notes: EU numbering; copies: 2 + 2
B18: IgG1-F1243 (antibody)
heavy: B1 heavy with L237R, S241K, E258T
light: not shown
notes: EU numbering; copies: 2 + 2
B19: IgG1-F1231 (antibody)
heavy: B1 heavy with T256S, E258T, R440K
light: not shown
notes: EU numbering; copies: 2 + 2
B20: IgG1-F1249 (antibody)
heavy: B1 heavy with L237R, S241K, T256S, E258Q
light: not shown
notes: EU numbering; copies: 2 + 2
B21: IgG1-F1205 (antibody)
heavy: B1 heavy with T252V, T256S, E258Q
light: not shown
notes: EU numbering; copies: 2 + 2
B22: IgG1-F1216 (antibody)
heavy: B1 heavy with L253S, T256S, E258T, R440Q, E442S
light: not shown
notes: EU numbering; copies: 2 + 2
B23: IgG1-F1260 (antibody)
heavy: B1 heavy with L237R, S241K, T256S, E258T, T309Q, Q313H
light: not shown
notes: EU numbering; copies: 2 + 2
B24: IgG1-F1267 (antibody)
heavy: B1 heavy with L237R, S241K, T256A, E258T
light: not shown
notes: EU numbering; copies: 2 + 2
B25: IgG1-F1257 (antibody)
heavy: B1 heavy with L237R, S241K, T256S, E258T, T309A, Q313A
light: not shown
notes: EU numbering; copies: 2 + 2
B26: IgG1-F1201 (antibody)
heavy: B1 heavy with T252V, T256S
light: not shown
notes: EU numbering; copies: 2 + 2
B27: IgG1-F1218 (antibody)
heavy: B1 heavy with L253V, T256S, E258T, R440Q, E442S
light: not shown
notes: EU numbering; copies: 2 + 2
B28: IgG1-F1250 (antibody)
heavy: B1 heavy with L237R, S241K, E258Q
light: not shown
notes: EU numbering; copies: 2 + 2
B29: IgG1-F1258 (antibody)
heavy: B1 heavy with L237R, S241K, T256S, E258T, T309A, Q313H
light: not shown
notes: EU numbering; copies: 2 + 2
B30: IgG1-F1262 (antibody)
heavy: B1 heavy with L237R, S241K, T256S, E258T, R440K
light: not shown
notes: EU numbering; copies: 2 + 2
B31: IgG1-F1232 (antibody)
heavy: B1 heavy with T256S, E258T, R440K, E442D
light: not shown
notes: EU numbering; copies: 2 + 2
B32: IgG1-F1230 (antibody)
heavy: B1 heavy with T256S, E258T, E442D
light: not shown
notes: EU numbering; copies: 2 + 2
B33: IgG1-F1255 (antibody)
heavy: B1 heavy with L237R, S241K, T256S, E258T, Q313A
light: not shown
notes: EU numbering; copies: 2 + 2
B34: IgG1-F1244 (antibody)
heavy: B1 heavy with L237R, S241K, T256S
light: not shown
notes: EU numbering; copies: 2 + 2
B35: IgG1-F1259 (antibody)
heavy: B1 heavy with L237R, S241K, T256S, E258T, T309Q, Q313A
light: not shown
notes: EU numbering; copies: 2 + 2
B36: IgG1-F1246 (antibody)
heavy: B1 heavy with L237R, S241K, T252V, E258T
light: not shown
notes: EU numbering; copies: 2 + 2
B37: IgG1-F1204 (antibody)
heavy: B1 heavy with E258Q
light: not shown
notes: EU numbering; copies: 2 + 2
B38: IgG1-F1207 (antibody)
heavy: B1 heavy with Y254M, T256S, E258T, I334E, M430L, Y436S, V438Y, R440Q, E442S
light: not shown
notes: EU numbering; copies: 2 + 2
B39: IgG1-F1229 (antibody)
heavy: B1 heavy with I255V, T256S, E258T, R440Q, E442S
light: not shown
notes: EU numbering; copies: 2 + 2
B40: IgG1-F1253 (antibody)
heavy: B1 heavy with L237R, S241K, T256S, E258T, T309A
light: not shown
notes: EU numbering; copies: 2 + 2
B41: IgG1-F1206 (antibody)
heavy: B1 heavy with T252V, E258Q
light: not shown
notes: EU numbering; copies: 2 + 2
B42: IgG1-F1263 (antibody)
heavy: B1 heavy with L237R, S241K, T256S, E258T, R440K, E442D
light: not shown
notes: EU numbering; copies: 2 + 2

Target: T1, soluble human FcRn complexed with β2-microglobulin (human, UniProt P61769 21-119, limits assumed)
T1 construct: also called hFcRn
Assay: Biacore SPR, pH 7.0;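 further: test antibodies captured on a Protein L chip with human FcRn flowed over as analyte, KD obtained as the ratio of dissociation to association rate constants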

Row | Kd [nM] | Binder
1 | 62.5 | B1
2 | 145 | B2
3 | 152 | B3
4 | 120 | B4
5 | 156 | B5
6 | 127 | B6
7 | 200 | B7
8 | 135 | B8
9 | 233 | B9
10 | 126 | B10
11 | 88.1 | B11
12 | 157 | B12
13 | 277 | B13
14 | 82 | B14
15 | 571 | B15
16 | 1140 | B16
17 | 99.9 | B17
18 | 125 | B18
19 | 97.3 | B19
20 | 206 | B20
21 | 198 | B21

Row | Kd [nM] | Binder
22 | 1160 | B22
23 | 65.3 | B23
24 | 150 | B24
25 | 78.1 | B25
26 | 107 | B26
27 | 251 | B27
28 | 166 | B28
29 | 105 | B29
30 | 126 | B30
31 | 97.9 | B31
32 | 112 | B32
33 | 111 | B33
34 | 102 | B34
35 | 44.6 | B35
36 | 173 | B36
37 | 118 | B37
38 | 1110 | B38
39 | 2810 | B39
40 | 112 | B40
41 | 169 | B41
42 | 124 | B42

Reference: US20200199241A1 (Chugai, published 2020)
